Drawing on patent US20050085421A1, this text covers Bmax for one substance.

The test concerns the target GHSR-1a. As to the kind of experiment: 125I-ghrelin saturation binding on GHSR-1a membranes (typical value of membrane stock).

125I-ghrelin (peptide): the Bmax was 6 fmol/µg.
